Test results reported in the supplement of paper PMC7877785.
± gives the uncertainty stated by the source.

Assay: self-splicing fitness, log relative to wild type (ln ratio); higher = more splicing; Tetrahymena group I intron in knt gene, E. coli kanamycin selection, DiMSum; sequences stand for … in CUCUCU…GGAGGGAAAAGUUAUCAGGCAUGCACCUGGUAGCUAGUCUUUAAACCAAUAGAUUGCAUCGGUUUAAAAGGCAAGACCGUCAAAUUGCGGGAAAGGGGUCAACAGCCGUUCAGUACCAAGUCUCAGGGGAAACUUUGAGAUGGCCUUGCAAAGGGUAUGGUAAUAAGCUGACGGACAUGGUCCUAACCACGCAGCCAAGUCCUAAGUCAACAGAUCUUCUGUUGAUAUGGAUGCAGUUCACAGACUAAAUGUCGGUCGGGGAAGAUGUAUUCUUCUCAUAAGAUAUAGUCGGACCUCUCCUUAAUGGGAGCUAGCGGAUGAAGUGAUGCAACACUGGAGCCGCUGGGAACUAAUUUGUAUGCGAAAGUAUAUUGAUUAGUUUUGGAGUACUCGUGGUCG
Method in brief: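 DiMSum derived fitness as the error-weighted combination of fold changes across replicates, kanamycin versus no kanamycin, normalised to wild type. E. coli BL21(DE3) held the library, which randomised all eight P1ex-region intron nucleotides within the knt kanamycin-resistance gene on pET-22b(+). Six replicate transformations grew overnight at 37°C or 30°C on LB agar with or without 25 μg/mL kanamycin, also containing 100 μg/mL carbenicillin, 50 μM IPTG and 0.2% rhamnose, and pooled colonies were amplicon-sequenced on an Illumina HiSeq 2500.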

Sequence	self-splicing fitness (ln) (30 °C)	self-splicing fitness (ln) (37 °C)
CUUCAGCAAUAUUACGGAUA	-1.97 ± 0.12	-0.695 ± 0.11
CUUCAGCAAUAUUACGGCAC	-4.13 ± 0.33	-0.568 ± 0.13
CUUCAGCAAUAUUACGGGGG	-3.72 ± 0.21	-2.23 ± 0.26
CUUCAGCAAUAUUACGGGUG	-0.356 ± 0.038	0.33 ± 0.058
CUUCAGCAAUAUUACGGGUU	-4.12 ± 0.24	-2.49 ± 0.23
CUUCAGCAAUAUUACGGUUG	-1.28 ± 0.071	-0.455 ± 0.088
CUUCAGCAAUAUUACGUACA		-2.14 ± 0.5
CUUCAGCAAUAUUACGUGAG	-0.619 ± 0.031	-0.0413 ± 0.054
CUUCAGCAAUAUUACGUGCA	-3.53 ± 0.25	-3.83 ± 0.3
CUUCAGCAAUAUUACGUUAC	-3.35 ± 0.28	-2.27 ± 0.27
CUUGAGCAAUAUUACGAAUG	-1.23 ± 0.12	-0.596 ± 0.19
CUUGAGCAAUAUUACGAGAG		-1.44 ± 0.24
CUUGAGCAAUAUUACGAUAG	-2.67 ± 0.18	-0.896 ± 0.2
CUUGAGCAAUAUUACGAUCU		-1.04 ± 0.31
CUUGAGCAAUAUUACGCAUG	-2.7 ± 0.21	-1.3 ± 0.44
CUUGAGCAAUAUUACGCCGA		-2.7 ± 0.33
CUUGAGCAAUAUUACGGCUA		-1.11 ± 0.42
CUUGAGCAAUAUUACGUAAG	-1.68 ± 0.1	-0.582 ± 0.13
CUUGAGCAAUAUUACGUGCA	-3.2 ± 0.29	-1.94 ± 0.25
CUUUAGCAAUAUUACGACCG	-0.732 ± 0.27	0.518 ± 0.26
CUUUAGCAAUAUUACGAUGU	-3.36 ± 0.28	-2.36 ± 0.24
CUUUAGCAAUAUUACGCAUC		-1.54 ± 0.43
CUUUAGCAAUAUUACGCAUG	-1.2 ± 0.11	-1.96 ± 0.11
CUUUAGCAAUAUUACGCCCG	-0.47 ± 0.17	0.513 ± 0.24
CUUUAGCAAUAUUACGCCGG	-1.74 ± 0.16	-1.22 ± 0.19
CUUUAGCAAUAUUACGCUCG	-1.68 ± 0.15	-0.602 ± 0.18

Sequence	self-splicing fitness (ln) (30 °C)	self-splicing fitness (ln) (37 °C)
CUUUAGCAAUAUUACGCUGG	-3.05 ± 0.3	-1.99 ± 0.3
CUUUAGCAAUAUUACGGACC		-1.83 ± 0.41
CUUUAGCAAUAUUACGGCUU	-3.62 ± 0.32	
CUUUAGCAAUAUUACGGUUG	-0.918 ± 0.083	-0.666 ± 0.099
CUUUAGCAAUAUUACGGUUU	-2.79 ± 0.21	-2.71 ± 0.24
CUUUAGCAAUAUUACGUCUA		-2.26 ± 0.29
CUUUAGCAAUAUUACGUCUC	-2.64 ± 0.24	-3.21 ± 0.3
CUUUAGCAAUAUUACGUGCA	-2.93 ± 0.23	-2.75 ± 0.25
CUUUAGCAAUAUUACGUGGU	-2.28 ± 0.25	-2.8 ± 0.26
GAAAAGCAAUAUUACGAAUG	-1.89 ± 0.07	-1.19 ± 0.08
GAAAAGCAAUAUUACGACCA	-0.386 ± 0.13	0.235 ± 0.19
GAAAAGCAAUAUUACGAGCA	-0.889 ± 0.063	-0.307 ± 0.076
GAAAAGCAAUAUUACGAUCG	-0.618 ± 0.06	0.218 ± 0.08
GAAAAGCAAUAUUACGAUGA	-0.7 ± 0.1	-0.295 ± 0.11
GAAAAGCAAUAUUACGAUGG	-2.73 ± 0.13	-0.913 ± 0.12
GAAAAGCAAUAUUACGCACC	-0.811 ± 0.28	-0.377 ± 0.31
GAAAAGCAAUAUUACGCAGA	-2.53 ± 0.18	-2.2 ± 0.13
GAAAAGCAAUAUUACGCAGU	-3.38 ± 0.18	-1.69 ± 0.15
GAAAAGCAAUAUUACGCGGG	-3.37 ± 0.2	-2.21 ± 0.18
GAAAAGCAAUAUUACGCUGG	-2.57 ± 0.2	-1.24 ± 0.25
GAAAAGCAAUAUUACGCUGU	-2.75 ± 0.15	-0.534 ± 0.12
GAAAAGCAAUAUUACGGAGC	-2.46 ± 0.16	-0.743 ± 0.12
GAAAAGCAAUAUUACGGCGA	-0.334 ± 0.07	-0.204 ± 0.074
GAAAAGCAAUAUUACGGCGU	-0.208 ± 0.095	0.24 ± 0.11
GAAAAGCAAUAUUACGGUAA	-1.98 ± 0.12	-1.18 ± 0.12
